In patent US20220372138A1 (IOMX THERAPEUTICS, published 2022):
Substitutions are numbered along the chain they refer to.

T1: full-length ECD of human IGSF11 fused to murine Fc (human, UniProt Q5DX21 23-241)
T1 construct: also called Fc-fusion IGSF11 ECD; not shown: murine Fc
T1 sequence: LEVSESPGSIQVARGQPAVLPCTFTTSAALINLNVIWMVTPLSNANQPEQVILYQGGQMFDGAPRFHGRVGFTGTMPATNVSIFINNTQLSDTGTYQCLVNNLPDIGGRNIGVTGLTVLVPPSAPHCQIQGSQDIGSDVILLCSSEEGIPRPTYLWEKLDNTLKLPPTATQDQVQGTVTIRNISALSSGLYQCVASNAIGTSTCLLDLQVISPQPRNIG

T2: IgC2 domain of human IGSF11 fused to murine IgG2a Fc (human, UniProt Q5DX21 137-241)
T2 construct: not shown: murine IgG2a Fc-region
T2 sequence: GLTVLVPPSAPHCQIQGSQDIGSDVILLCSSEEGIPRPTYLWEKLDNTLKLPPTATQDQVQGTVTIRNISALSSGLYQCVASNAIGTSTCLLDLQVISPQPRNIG

T3: extracellular domain (ECD) of human IGSF11 (VSIG3), recombinant (human, UniProt Q5DX21 23-241)
T3 construct: biotinylated where captured on streptavidin; tags of the reagent not always stated; also called IGSF11 (ECD domain); ECD-IGSF11
T3 sequence: T1 sequence

T4: ECD of murine IGSF11, recombinant biotinylated (mouse, UniProt P0C673 23-240)
T4 construct: whole entry named; also called Mouse IGSF11
T4 sequence: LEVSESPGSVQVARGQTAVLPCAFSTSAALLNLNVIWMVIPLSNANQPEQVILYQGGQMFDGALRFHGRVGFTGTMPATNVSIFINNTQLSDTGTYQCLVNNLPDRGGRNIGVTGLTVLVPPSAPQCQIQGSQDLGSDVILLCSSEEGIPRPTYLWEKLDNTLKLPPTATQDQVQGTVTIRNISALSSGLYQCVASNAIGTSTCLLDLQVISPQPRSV

B1: C-006 (IgG1 format) (antibody, V domains shown)
VH: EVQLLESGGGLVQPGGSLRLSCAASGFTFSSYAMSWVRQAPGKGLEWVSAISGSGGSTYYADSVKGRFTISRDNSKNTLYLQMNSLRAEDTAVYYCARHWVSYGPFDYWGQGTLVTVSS
VL: DIQMTQSPSSLSASVGDRVTITCRASQSISSYLNWYQQKPGKAPKLLIYAASSLQSGVPSRFSGSGSGTDFTLTISSLQPEDFATYYCQQSHQSPPITFGQGTKVEIK
B2: C-022 (IgG1 format) (antibody, V domains shown)
VH: EVQLLESGGGLVQPGGSLRLSCAASGFTFSSYAMSWVRQAPGKGLEWVSAISGSGGSTYYADSVKGRFTISRDNSKNTLYLQMNSLRAEDTAAYYCARMAAGASWGTFDYWSQGTLVTVSS
VL: DIQMTQSPSSLSASVGDRVTITCRASQSISSYLNWYQQKPGKAPKLLIYAASSLQSGVPSRFSGSGSGTDFTLTISSLQPEDFATYYCQQRSGSPLTFGQGTKVEIK
B3: C-002 (IgG1 format) (antibody, V domains shown)
VH: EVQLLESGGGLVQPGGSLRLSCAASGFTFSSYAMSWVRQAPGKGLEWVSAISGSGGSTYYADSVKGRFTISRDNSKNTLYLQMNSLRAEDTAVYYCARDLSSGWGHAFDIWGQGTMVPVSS
VL: ASVLTQPPSVSAAPGQKVTISCSGSSSNIGNNYVSWYQQLPGTAPKLLIYDNNKRPSGIPDRFSGSKSGTSATLGITGLQAEDEADYYCLSYTTSEHHLVFGGGTKLTVL
B4: C-013 (IgG1 format) (antibody, V domains shown)
VH: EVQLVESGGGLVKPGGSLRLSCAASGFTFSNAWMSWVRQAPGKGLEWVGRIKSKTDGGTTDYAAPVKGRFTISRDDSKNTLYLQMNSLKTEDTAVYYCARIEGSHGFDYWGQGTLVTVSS
VL: SYELTQPPSVSVSPGQTASITCSGDKLGDKYASWYQQKPGQSPVLVIYQDSKRPSGIPERFSGSNSGNTATLTISGTQAEDEADYYCASYLHTPKQFVFGGGTKLTVL
B5: C-015 (IgG1 format) (antibody, V domains shown)
VH: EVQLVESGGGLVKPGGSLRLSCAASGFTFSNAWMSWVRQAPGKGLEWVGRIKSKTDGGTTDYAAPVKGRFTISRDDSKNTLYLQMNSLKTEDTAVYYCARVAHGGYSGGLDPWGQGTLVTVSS
VL: B4 VL with A88S, Y90T, L91G, H92T, T93A, P94H, K95T, Q96L, F97A
B6: C-010 (IgG1 format) (antibody, V domains shown)
VH: QVQLVQSGAEVKKPGSSVKVSCKASGGTFSSYAISWVRQAPGQGLEWMGGIIPIFGTANYAQKFQGRVTITADESTSTAYMELSSLRSEDTAVYYCARGYGEYYPAFDVWGQGTLVTVSS
VL: B4 VL with L91A, P94H, K95S, Q96T, F97W
B7: C-018 (IgG1 format) (antibody, V domains shown)
VH: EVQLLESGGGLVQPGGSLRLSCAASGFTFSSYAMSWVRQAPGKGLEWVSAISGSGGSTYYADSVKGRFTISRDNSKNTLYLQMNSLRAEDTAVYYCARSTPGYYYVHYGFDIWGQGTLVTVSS
VL: B4 VL with A88Q, S89A, Y90W, L91S, H92T, T93S, P94T, K95H, Q96S, F97W
B8: C-014 (IgG1 format) (antibody, V domains shown)
VH: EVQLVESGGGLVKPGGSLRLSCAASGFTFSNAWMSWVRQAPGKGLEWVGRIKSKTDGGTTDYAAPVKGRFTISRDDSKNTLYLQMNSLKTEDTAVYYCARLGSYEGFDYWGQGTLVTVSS
VL: B4 VL with A88S, S89T, L91T, H92V, P94S, K95S, Q96V, F97V
B9: C-023 (IgG1 format) (antibody, V domains shown)
VH: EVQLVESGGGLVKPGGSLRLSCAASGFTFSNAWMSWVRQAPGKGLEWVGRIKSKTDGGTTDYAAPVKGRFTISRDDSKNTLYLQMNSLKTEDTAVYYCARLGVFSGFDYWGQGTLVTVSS
VL: B4 VL with A88H, S89T, Y90W, L91T, T93H, P94S, K95L, Q96A, F97V
B10: C-011 (IgG1 format) (antibody, V domains shown)
VH: QVQLVQSGAEVKKPGSSVKVSCKASGGTFSSYAISWVRQAPGQGLEWMGGIIPIFGTANYAQKFQGRVTITADESTSTAYMELSSLRSEDTAVYYCARHSTPSFLQYWGQGTLVTVSS
VL: SYELTQPPSVSVSPGQTASITCSGDKLGDKYASWYQQKPGQSPVLVIYQDSKRPSGIPERFSGSNSGNTATLTISGTQAEDEADYYCAVYPAHASARWVFGGGTKLTVL
B11: C-021 (IgG1 format) (antibody, V domains shown)
VH: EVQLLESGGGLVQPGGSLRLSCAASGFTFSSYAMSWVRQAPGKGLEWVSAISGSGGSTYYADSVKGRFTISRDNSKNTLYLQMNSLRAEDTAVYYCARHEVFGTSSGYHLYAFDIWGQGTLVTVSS
VL: B2 VL with R91W, S94L
B12: A-031 (scFv format) (scFv, V domains shown)
VH: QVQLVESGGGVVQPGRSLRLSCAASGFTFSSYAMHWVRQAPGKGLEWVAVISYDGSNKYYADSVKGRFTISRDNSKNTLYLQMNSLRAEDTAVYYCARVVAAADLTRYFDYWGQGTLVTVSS
VL: EIVLTQSPGTVSLSPGERATLSCRASQSVPKNYLAWFQQKPGQAPRLVIHTASSRAPGIPDRFTGSGSGTDFTLTISRLEPEDFAVYYCQQYGTSPNTFGQGTKLDIK
notes: scFv
B13: A-032 (scFv format) (scFv, V domains shown)
VH: QVQLVQSGAEVKKPGASVKVSCKASGYTFTGYYMHWVRQAPGQGLEWMGWMNPNSGNTGYAQKFQGRVTMTRNTSISTAYMELSSLRSEDTAVYYCARGGQQQLVLDDYWGQGTLVTVSS
VL: not shown
B14: A-037 (scFv format) (scFv, V domains shown)
VH: B13 VH with M51I
VL: NFMLTQPHSVSESPGKTVTISCTGSSGSIASNYVQWYQQRPGSAPTTVIYEDNQRPSGVPDRFSGSIDSSSNSASLTISGLKTEDEADYYCQSYDSSNQRVFGGGTKLTVL
notes: scFv
B15: A-030 (scFv format) (scFv, V domains shown)
VH: B13 VH with M51I
VL: DIQLTQSPSTLSASVGDRVTITCRASQSIGGWLAWYQHKPGKAPKLLIYAASSLQSGVPSRFSGSGSGTDFTLTISSLQPEDFATYYCRQSYSTPPTFGQGTKVEIK
notes: scFv
B16: A-036 (scFv format) (scFv, V domains shown)
VH: B13 VH with M51I, N57G, G59N
VL: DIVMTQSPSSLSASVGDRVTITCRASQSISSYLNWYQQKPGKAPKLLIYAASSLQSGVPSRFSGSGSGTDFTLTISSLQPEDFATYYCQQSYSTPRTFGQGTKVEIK
notes: scFv
B17: A-003 (scFv format) (scFv, V domains shown)
VH: VQLVQSGAEVKKPGSSVKVSCKASGGTFSSYAISWVRQAPGQGLEWMGGIIPIFGTANYAQKFQGRVTITADESTSTAYMELSSLRSEDTAVYYCASPRIQLWAAGGFDYWGQGTLVTVSS
VL: QSALTQPASVSGSPGQSITISCTGTSSDVGGYNLVSWYQQHPGKAPKLMIYDVSNRPSGVSNRFSGSKSGNTASLTISGLQAEDEADYYCSSFTTSTTLVFGGGTKLTVL
notes: scFv
B18: A-033 (scFv format) (scFv, V domains shown)
VH: QVQLVQSGAEVKKPGASVKVSCKASGYTFTSYGISWVRQAPGQGLEWMGWISAYNGNTNYAQKLQGRVTMTTDTSTSTAYMELRSLRSDDTAVYYCARDHSIVGATTFDYWGQGTLVTVSS
VL: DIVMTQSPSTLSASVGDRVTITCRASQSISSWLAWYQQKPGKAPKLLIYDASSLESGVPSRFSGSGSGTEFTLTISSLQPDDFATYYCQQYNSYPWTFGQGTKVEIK
notes: scFv
B19: A-021 (scFv format) (scFv, V domains shown)
VH: QVQLVQSGAEVKKPGASVKVSCKASGYTFTSYGISWVRQAPGQGLEWMGWISAYNGNTNYAQKLQGRVTMTTDTSTSTAYMELRSLRSDDTAVYYCARVPAWSGQFDYWGQGTLVTVSS
VL: QSALTQPASVSGSPGQSITISCTGTSSDVGGYNYVSWYQQHPGKAPKLMIYEVTNRPSGVSDRFSGSKSANTASLTISELQAEDEAVYYCNSYTSGPTYVLFGGGTQLTVL
notes: scFv
B20: A-023 (scFv format) (scFv, V domains shown)
VH: QVQLVQSGAEVKKPGSSVKVSCKASGGTFSSYAISWVRQAPGQGLEWMGGIIPIFGTANYAQKFQGRVTITADESTSTAYMELSSLRSEDTAVYYCARPKYSSGWFYYYGMDVWGQGTTVTVSS
VL: QSVLTQPPSVSAAPGQKVTISCSGSSSNIGNNYVSWYQQLPGTAPKLLIYDNNKRPSGIPDRFSGSKSGTSATLGITGLQTGDEADYYCGTWDSSLSVVFGGGTKLTVL
notes: scFv
B21: A-017 (scFv format) (scFv, V domains shown)
VH: B13 VH with M51I
VL: DIVLTQSPASLSASVGDRITITCQASQDIRHHLNWFQHKPGKAPKLLISDSSNLETGVPSRFSGSGSGTDFSFTISRLQPEDIATYYCQQYDSLPRTFGQGTKLEIK
notes: scFv
B22: A-024 (scFv format) (scFv, V domains shown)
VH: QMQLVQSGAEVKKPGSSVKVSCKASGGTFSSYAISWVRQAPGQGLEWMGWISAYNGNTNYAQKLQGRVTMTTDTSTSTAYMELRSLRSDDTAVYYCASLGSYGYTGAFDIWGQGTMATVSS
VL: QSALTQPASVSGSPGQSITISCTGTSSDVGGYNYVSWYQQHPGKAPKLMIYEVSNRPSGVSNRFSGSKSGNTASLTISGLQAEDEADYYCSSYTSSSTLVVFGGGTKLTVL
B23: A-014 (scFv format) (scFv, V domains shown)
VH: QVQLVQSGAEVKKPGASVKVSCKASGYTFNDYYIHWVRQAPGQGLEWMGWFNPSTGGANYAQKFQGRVTMTRDTSISTAYLEVSSLRSDDTAVYYCARGNSPDLDYWGQGTLVTVSS
VL: DIQMTQSPDSLTVSLGERATINCKSSQSLLHSSNNKNYLAWYQQRPGQPPKLLIYWASTRQSGVPDRFSGSGSGTDFTLTINSLQADDMAVYYCQQYYTTTPNTFGQGTKLEIK
notes: scFv

biological target: T1, full-length ECD of human IGSF11 fused …; test: IgG ELISA;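 also: ELISA binding of IgG antibodies to plate-coated IGSF11 Fc-fusion proteins (full-length ECD, IgV or IgC2 domain), detected via HRP-labelled anti-human IgG with TMB development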

EC50 [nM]	Binder
1 to 20	B1
1 to 20	B2
1 to 20	B3
1 to 20	B4
20 to 100	B5
20 to 100	B6
1 to 20	B7
1 to 20	B8
< 1	B9
< 1	B10

biological target: T2, IgC2 domain of human IGSF11 fused to …; test: IgG ELISA;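 also: ELISA binding of IgG antibodies to plate-coated IGSF11 Fc-fusion proteins (full-length ECD, IgV or IgC2 domain), detected via HRP-labelled anti-human IgG with TMB development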

EC50 [nM]	Binder
< 1	B1
< 1	B11
1 to 20	B2
< 1	B3
< 1	B4
1 to 20	B5
1 to 20	B6
< 1	B7
< 1	B8
< 1	B9
< 1	B10

biological target: T3, extracellular domain (ECD) of human …; test: ELISA RFU 0.1-0.5

ELISA binding signal (RFU) [rfu]	Binder
0.1 to 0.5	B12
0.1 to 0.5	B13
0.1 to 0.5	B14
0.1 to 0.5	B15
0.1 to 0.5	B16
0.1 to 0.5	B17
0.1 to 0.5	B18

biological target: T4, ECD of murine IGSF11, recombinant …; test: ELISA RFU 0.1-0.5

ELISA binding signal (RFU) [rfu]	Binder
0.1 to 0.5	B19
0.1 to 0.5	B12
0.1 to 0.5	B20
0.1 to 0.5	B13
0.1 to 0.5	B14
0.1 to 0.5	B15
0.1 to 0.5	B21
0.1 to 0.5	B16
0.1 to 0.5	B22
0.1 to 0.5	B23
0.1 to 0.5	B17
0.1 to 0.5	B18

biological target: T3, extracellular domain (ECD) of human …; test: ELISA RFU 0.5-1.0

ELISA binding signal (RFU) [rfu]	Binder
0.5 to 1	B19
0.5 to 1	B20
0.5 to 1	B21
0.5 to 1	B22
0.5 to 1	B23
